One test has as its target T1, Fc tagged human CD137 (human, UniProt Q07011 24-186).
T1 construct: also called CD137-Fc chimeric protein
The experiment in a line: SPR. The method, then:
(§1) Affinity to PDL1 of the different species was determined by SPR measurements using a Biacore T200 device (GE Healthcare). An antibody specific for the Fc region of human IgGs was immobilized on a sensor chip (CM5 sensor chip, GE Healthcare) by amine-coupling. For all formats, with the exception of the Fc containing Morrison formats, PDL1-Fc chimeric protein from different species were captured by the immobilized antibody.
(§2) Three-fold serial dilutions of the molecules specific for PDL1 (0.12-90 nM) were injected into the flow cells for three minutes and dissociation was monitored for 10 minutes. After each injection cycle, surfaces were regenerated with one injection of a 3 M MgCl₂ solution. The apparent dissociation (kd) and association (kₐ) rate constants and the apparent dissociation equilibrium constant (KD) were calculated using one-to-one Langmuir binding model. Affinity to CD137 of the different species was determined using the identical setup as for PDL1 with the exception that CD137-Fc chimeric protein from different species were captured by the immobilized antibody.
On the technique in general: In SPR one partner is held on a chip, and binding of the other changes the refractive index at the surface.

In a further test the target is T2, Fc tagged human PDL1 (human, UniProt Q9NZQ7 19-239).
T2 construct: Bought (Sino Biological, cat. 10084-H02H); captured on the SPR chip; also called PDL1-Fc chimeric protein
As to the kind of experiment: SPR. As to the method: as §1, §2

Test [1] concerns the target T3, biotinylated human PDL1 (human, UniProt Q9NZQ7 19-238, limits assumed, biotinylated).
T3 construct: also called biotinylated PDL1
As to the kind of experiment: competition ELISA PD-1/PDL1. The method, then:
(§3) Plates were blocked for 1 hour at room temperature by adding 300 μl of PBS with i%BSA and 0.2% tween (dilution buffer) to each well. Inhibitors were serially diluted in 3-fold steps to final concentrations ranging from 300 to 0.005 ng/ml in dilution buffer containing 1 ng/ml biotinylated human PDL1. The mixtures were pre-incubated for 1 hour at room temperature under gentle agitation on a rotating mixer (21 rpm) and added to the microplates after 3 wash cycles with 450 μl wash buffer per well. Plates were incubated for 1.5 hours at room temperature under gentle agitation, then 10 ng/ml streptavidin-polyHRP40 was added to each microplate well after three washes with 450 μl of wash buffer per well. After 1 h incubation at RT, plates were washed three times with 450 μl wash buffer and TMB substrate solution was added. The enzymatic reaction was stopped after 6 minutes by addition of 1 M HCl and absorbance was measured at 450 nm using 690 nm as a reference wavelength. For calculation of IC₅₀ values, a four-parameter logistic (4PL) curve fit was performed in Graph Pad Prism using reference subtracted values.
Background: In an ELISA, binding on a coated surface is turned into a signal by an enzyme label.

In test [2] the target is CD137 on Jurkat NFkB reporter cells (human, UniProt Q07011 24-255). The experiment in a line: cell-based or functional assay.
For test [3], the target named is T3, biotinylated human PDL1. As to the kind of experiment: competition ELISA B7.1/PDL1. The method, then:
as §3, with “1% BSA” for “i%BSA”, “Inhibitors were serially diluted in 3-fold steps to final concentrations ranging from 300 to 0.005 ng/ml in dilution buffer containing 1 ng/ml biotinylated human PDL1.” left out

The target in a further test is human PDL1 on cells (human, UniProt Q9NZQ7 19-290). The experiment in a line: cell-based or functional assay.

Where “and” joins values, the source holds several entries; their conditions need not be identical. Identical values can stand only once. Some results are limits rather than exact numbers.

For orientation: Kd means the equilibrium constant for the complex coming apart. Higher therefore signals a looser complex. As a reminder, the koff is the first-order rate constant of dissociation. The low end stands for slow dissociation, the high end for fast dissociation. Usually IC50 stands for the midpoint of a concentration-inhibition curve. The low end stands for inhibition by little substance, the high end for a need for much substance. A word on the kon: it is the second-order rate constant of association. Read a low kon as slow association.

B1: PRO966 (other)
chain: DIQMTQSPSSLSASVGDRVTITCQASQSINDYLAWYQQKPGKAPKLLIYKASTLASGVPSRFSGSGSGTDFTLTISSLQPEDFATYYCQQGYIITDIDNVFGTGTKVTVLGGGGGSQVQLQESGPGLVKPSETLSLTCKVSGFSFNNDYDMCWIRQPPGKGLEWIGCIDTGDGSTYYASWAKGRVTISVDSSKNQFSLKLSSVTAADTAVYYCAREAASSSGYGMGYFDLWGQGTLVTVSSGGGGSGGGGSGGGGSGGGGSIQMTQSPSSLSASVGDRVTITCQSSQSVYDNNWLAWYQQKPGKAPKLLIYRASNLASGVPSRFSGSGSGTDFTLTISSLQPEDFATYYCQGTYLSSNWYWAFGTGTKVTVLGGGGGSQVQLQESGPGLVKPSETLSLTCKVSGFSFSSGYDMCWIRQPPGKGLEWIGCVVAGSVDITYYASWAKGRVTISVDSSKNQFSLKLSSVTAADTAVYYCARKDAYSDAFNLWGQGTLVTVSSGGGGSGGGGSIQMTQSPSSLSASVGDRVTITCQSSESVYSNNQLSWYQQKPGQPPKLLIYDASDLASGVPSRFSGSGSGTDFTLTISSLQPEDFATYYCAGGFSSSSDTAFGGGTKLTVLGGGGGSGGGGSGGGGSGGGGSEVQLVESGGGLVQPGGSLRLSCAASGFSLSSNAMGWVRQAPGKGLEYIGIISVGGFTYYASWAKGRFTISRDNSKNTVYLQMNSLRAEDTATYFCARDRHGGDSSGAFYLWGQGTLVTVSS
notes: trispecific scDb-scFv; also called PRO1052; 38-27-C05 sc01 scDb-i/33-03-G02 sc01 scDb-o/19-01-H04-sc03 scFv
As to B1, in the test with Fc tagged human CD137, the Kd came to 2.2 nM and the koff stood at 0.0022 s⁻¹. The binding result with Fc tagged human PDL1 is “binds”.

B2: PRO1352 (scFv)
scFv: DIQMTQSPSSLSASVGDRVTITCQASQSINNVLAWYQQKPGKAPKLLIYRASTLASGVPSRFSGSGSGTDFTLTISSLQPEDFATYYCQSSYGNYGDFGCGTKVTVLGGGGGSGGGGSGGGGSGGGGSEVQLVESGGGLVQPGGSLRLSCAASGFSFSNSYWICWVRQAPGKCLEWIGCTFVGSSDSTYYANWAKGRFTISRDNSKNTVYLQMNSLRAEDTAVYYCARHPSDAVYGYANNLWGQGTLVTVSS
notes: also called scFv of 38-02-A04 sc13
As to B2, in the test with Fc tagged human CD137, the Kd amounted to 1.47 nM.

B3: PRO1347 (scFv)
scFv: DIQMTQSPASLSASVGDRVTITCQASQSIGTYLAWYQQKPGKPPKLLIYRAFILASGVPSRFSGSGSGTDFTLTISSLQPEDFATYYCQSNFYSDSTTIGPNAFGTGTKVTVLGGGGGSGGGGSGGGGSGGGGSEVQLVESGGGLVQPGGSLRLSCAASGFSFNSDYWIYWVRQAPGKGLEWIASIYGGSSGNTQYASWAQGRFTISRDNSKNTVYLQMNSLRAEDTAVYFCARGYVDYGGATDLWGQGTLVTVSS
notes: also called scFv of 37-20-sc09.1; 37-20-B03-sc09
Regarding B3, the Kd with Fc tagged human PDL1 is 0.009 nM.

B4: PRO1392 (scFv)
scFv: DIQMTQSPSSLSASVGDRVTITCQASQSINDYLAWYQQKPGKAPKLLIYKASTLASGVPSRFSGSGSGTDFTLTISSLQPEDFATYYCQQGYIITDIDNVFGTGTKVTVLGGGGGSGGGGSGGGGSGGGGSQVQLQESGPGLVKPSETLSLTCKASGFSFSSGYDMCWVRQPPGKGLEWIACVVAGSVDITYYASWAKGRVTISKDSSKNQVSLKLSSVTAADTAVYYCARKDAYSDAFNLWGQGTLVTVSS
notes: also called scFv of 33-03-G02 sc18
As for B4, the Kd in the test with Fc tagged human PDL1 was 0.00994 nM.

B5: PRO1183 (scFv)
scFv: DFQLTQSPSSLSASVGDRVTITCQASQSINDYLAWYQQKPGKSPKLLIYKASTLASGVPSRFSGSGSGTDFTLTISSLQPEDFATYYCQQGYIITDIDNVFGTGTKVTVLGGGGGSGGGGSGGGGSGGGGSQSQLQESGPGLVKPSETLSLTCKASGFSFSSGYDMCWVRQPPGKGLEWIACVVAGSVDITYYASWAKGRVTISKDSSKNQVSLKLSSVTAADTAVYFCARKDAYSDAFNLWGQGTLVTVSS
notes: also called scFv of 33 03-G02 sc03
As for B5, in the test with Fc tagged human PDL1, the Kd was below 0.00209 nM.

B6: PRO908 (scFv)
scFv: DIQMTQSPSSLSASVGDRVTITCQASQSIGTYLAWYQQKPGKAPKLLIYRAFILASGVPSRFSGSGSGTDFTLTISSLQPEDFATYYCQSNFYSDSTTIGPNAFGTGTKVTVLGGGGGSGGGGSGGGGSGGGGSQVQLQESGPGLVKPSETLSLTCKVSGFSFNSDYWIYWIRQPPGKGLEWIGSIYGGSSGNTQYASWAQGRVTISVDSSKNQFSLKLSSVTAADTAVYYCARGYVDYGGATDLWGQGTLVTVSS
notes: also called scFv of 37-20-B03 sc01
The molecule B6 yielded an equilibrium dissociation constant (Kd) with Fc tagged human PDL1 of 0.00594 nM.

B7: PRO1482 (other)
chain: DIQMTQSPSSLSASVGDRVTITCQASQSINNVLAWYQQKPGKAPKLLIYRASTLASGVPSRFSGSGSGTDFTLTISSLQPEDFATYYCQSSYGNYGDFGCGTKVTVLGGGGGSEVQLVESGGGLVQPGGSLRLSCAASGFSFNSDYWIYWVRQAPGKGLEWIASIYGGSSGNTQYASWAQGRFTISRDNSKNTVYLQMNSLRAEDTAVYFCARGYVDYGGATDLWGQGTLVTVSSGGGGSGGGGSGGGGSGGGGSIQMTQSPASLSASVGDRVTITCQASQSIGTYLAWYQQKPGKPPKLLIYRAFILASGVPSRFSGSGSGTDFTLTISSLQPEDFATYYCQSNFYSDSTTIGPNAFGTGTKVTVLGGGGGSEVQLVESGGGLVQPGGSLRLSCAASGFSFSNSYWICWVRQAPGKCLEWIGCTFVGSSDSTYYANWAKGRFTISRDNSKNTVYLQMNSLRAEDTAVYYCARHPSDAVYGYANNLWGQGTLVTVSSGGGGSGGGGSIQMTQSPSSLSASVGDRVTITCQSSESVYSNNQLSWYQQKPGQPPKLLIYDASDLASGVPSRFSGSGSGTDFTLTISSLQPEDFATYYCAGGFSSSSDTAFGGGTKLTVLGGGGGSGGGGSGGGGSGGGGSEVQLVESGGGLVQPGGSLRLSCAASGFSLSSNAMGWVRQAPGKGLEYIGIISVGGFTYYASWAKGRFTISRDNSKNTVYLQMNSLRAEDTATYFCARDRHGGDSSGAFYLWGQGTLVTVSS
notes: trispecific scDb-scFv; also called 37-20-B03 sc09.1 scDb-i/38-02-A04 sc13 scDb-o/19-01-H04 sc03 scFv
B7: in the test with biotinylated human PDL1 [1], the IC50 amounted to 1.78 ng/mL and the “rel. IC50 (IC50 avelumab/IC50 test)” value was found to be 1.24 fold. For the same molecule, in test [2], the “IC50 (ng/ml) (EC50 in Table 16C), NFkB reporter, HCC827 + IFNg, 6 h, +HSA” value amounted to 20.1 ng/mL; the “IC50 (ng/ml) (EC50 in Table 16C), NFkB reporter, HCC827 + IFNg, 24 h, +HSA” value stood at 7.24 ng/mL; the “rel. IC50 (PRO1186/test), 6 h” value amounted to 0.55 fold; the “rel. IC50 (PRO1186/test), 24 h” value amounted to 1.23 fold. In the test with biotinylated human PDL1 [3], the IC50 was 8.18 ng/mL and the “rel. IC50 (IC50 avelumab/IC50 test)” value amounted to 1.51 fold. In the test with human PDL1 on cells, the “IC50 (ng/ml), NF-AT potency assay, +HSA” value turned out to be 54.8 ng/mL and the “rel. IC50 (avelumab/test), +HSA” value amounted to 0.68 fold. In the test with Fc tagged human CD137, this molecule displayed a Kd of 1.1 nM and a kon of 320000 M⁻¹ s⁻¹. Also, in the test with Fc tagged human PDL1, the affinity, expressed as Kd, was 0.0098 nM and the kon is 3.4e+06 M⁻¹ s⁻¹.

B8: PRO1360 (scFv)
scFv: DFQLTQSPSSLSASVGDRVTITCQASQSISNRLAWYQQKPGKPPKLLIYSASTLASGVPSRFSGSGSGTDFTLTISSLQPEDFATYYCQSTYYGNDGNAFGTGTKVTVLGGGGGSGGGGSGGGGSGGGGSESQLVESGGGLVQPGGSLRLSCAASGFSFSANYYPCWVRQAPGKGLEWIGCIYGGSSDITYDANWTKGRFTISRDNSKNTVYLQMNSLRAEDTAVYFCARSAWYSGWGGDLWGPGTLVTVSS
notes: anti-CD137 scFv; also called 38-27-A11 sc03 scFv
In the case of B8, the Kd with Fc tagged human CD137 was determined as 0.234 nM.

B9: PRO1359 (scFv)
scFv: DIQMTQSPSSLSASVGDRVTITCQASQSISNRLAWYQQKPGKAPKLLIYSASTLASGVPSRFSGSGSGTDFTLTISSLQPEDFATYYCQSTYYGNDGNAFGTGTKVTVLGGGGGSGGGGSGGGGSGGGGSEVQLVESGGGLVQPGGSLRLSCAASGFSFSANYYPCWVRQAPGKGLEWIGCIYGGSSDITYDANWTKGRFTISRDNSKNTVYLQMNSLRAEDTAVYYCARSAWYSGWGGDLWGQGTLVTVSS
notes: anti-CD137 scFv; also called 38-27-A11 sc02 scFv
For B9, the Kd in the test with Fc tagged human CD137 is 3.24 nM and 3.07 nM.

Values taken from patent publication US20230192897A1 (NUMAB THERAPEUTICS, published 2023).
